This note sets out measurements from article PMC12412572, “Natural Allelic Variations in IbCHYR1–IbZnFR Complex Regulate Fusarium Root Rot Resistance in Sweet Potato”.

In this series the target is T1, IbZnFR (CCCH-type zinc-finger protein) (Ipomoea batatas, UniProt A0A6M2VA70 1-565).
T1 sequence: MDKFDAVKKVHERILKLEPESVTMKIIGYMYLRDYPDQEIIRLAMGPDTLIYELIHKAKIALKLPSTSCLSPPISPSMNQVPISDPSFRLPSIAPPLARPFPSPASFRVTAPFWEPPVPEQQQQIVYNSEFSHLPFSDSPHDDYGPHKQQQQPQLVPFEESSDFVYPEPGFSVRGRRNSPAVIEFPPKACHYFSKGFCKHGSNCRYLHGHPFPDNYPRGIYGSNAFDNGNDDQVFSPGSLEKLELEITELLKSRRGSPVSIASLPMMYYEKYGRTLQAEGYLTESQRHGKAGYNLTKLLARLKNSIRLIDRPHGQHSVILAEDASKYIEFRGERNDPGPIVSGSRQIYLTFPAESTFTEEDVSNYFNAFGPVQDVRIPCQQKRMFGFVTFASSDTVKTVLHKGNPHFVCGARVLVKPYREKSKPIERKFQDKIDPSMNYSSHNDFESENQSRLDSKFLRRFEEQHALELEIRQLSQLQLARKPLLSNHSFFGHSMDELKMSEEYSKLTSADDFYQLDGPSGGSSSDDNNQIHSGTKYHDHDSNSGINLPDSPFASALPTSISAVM
Description: EMSA; LightShift Chemiluminescent EMSA Kit (Thermo), manufacturer's instructions; buffer, salt, pH and temperature not stated. Conditions: protein: recombinant; tags: His (pET-28a); label: 5' biotin; blunt.

B1: IbCOMT promoter wt probe (dsDNA)
DNA 1: AAACCGTTCTCTCTCTTCTTCTTCATCTTC
DNA 2: GAAGATGAAGAAGAAGAGAGAGAACGGTTT
In the case of B1, the binding result is “binds”.

B2: IbPR5 promoter wt probe (dsDNA)
DNA 1: ATTGTACTAAAAGGGAGAGGATACAAGGTT
DNA 2: AACCTTGTATCCTCTCCCTTTTAGTACAAT
For the molecule B2, the binding result is on record as “binds”.

B3: IbMDAR4 promoter wt probe (dsDNA)
DNA 1: ACATTTACCCGGGAGAACGGATAACG
DNA 2: CGTTATCCGTTCTCCCGGGTAAATGT
As to B3, the binding result is recorded as “binds”.

B4: IbCSLE1 promoter wt probe (dsDNA)
DNA 1: ATAGTCTTTGTAGGGAGACACAGACACCAT
DNA 2: ATGGTGTCTGTGTCTCCCTACAAAGACTAT
As to B4, the binding result is reported as “binds”.

B5: IbMRL7L promoter wt probe (dsDNA)
DNA 1: CTTCTTATCCCTCTAACTTTCCTACA
DNA 2: TGTAGGAAAGTTAGAGGGATAAGAAG
Turning to B5, the binding result is “binds”.
